# According to patent US20200164032A1 (WASHINGTON UNIVERSITY, published 2020):
# Like-named read-outs stand apart in the source and are kept apart here.
# T1: murine XCL1 (lymphotactin) (mouse, UniProt P47993 22-114)
# T1 construct: also called mXCL1; lymphotactin (XCL1)
# T1 sequence: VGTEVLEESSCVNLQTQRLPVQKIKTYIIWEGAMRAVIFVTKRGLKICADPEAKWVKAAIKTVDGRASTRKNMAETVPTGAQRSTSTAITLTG
# T2: murine CCL24 (mouse, UniProt Q9JKC0 27-119)
# T2 construct: also called mCCL24
# T2 sequence: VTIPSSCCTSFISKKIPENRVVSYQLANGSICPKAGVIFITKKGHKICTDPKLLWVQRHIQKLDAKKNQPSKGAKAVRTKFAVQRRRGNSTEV
# T3: murine CCL8 (mouse, UniProt Q9Z121 24-97)
# T3 construct: also called mCCL8
# T3 sequence: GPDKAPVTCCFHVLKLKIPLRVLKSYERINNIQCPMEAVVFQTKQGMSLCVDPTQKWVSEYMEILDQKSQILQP
# T4: murine CCL12 (mouse, UniProt Q62401 23-104)
# T4 construct: also called mCCL12
# T4 sequence: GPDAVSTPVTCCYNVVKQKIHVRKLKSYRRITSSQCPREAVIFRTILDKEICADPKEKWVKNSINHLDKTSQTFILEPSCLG
# T5: murine CCL4 (mouse, UniProt P14097 24-92)
# T5 construct: also called mCCL4
# T5 sequence: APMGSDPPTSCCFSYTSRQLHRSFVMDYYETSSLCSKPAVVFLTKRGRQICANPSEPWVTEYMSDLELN
# T6: human CCL5 (human, UniProt P13501 24-91)
# T6 construct: also called hCCL5
# T6 sequence: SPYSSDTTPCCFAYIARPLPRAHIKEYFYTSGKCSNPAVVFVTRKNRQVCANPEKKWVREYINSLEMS
# T7: murine CCL20 (mouse, UniProt O89093 28-97)
# T7 construct: also called mCCL20
# T7 sequence: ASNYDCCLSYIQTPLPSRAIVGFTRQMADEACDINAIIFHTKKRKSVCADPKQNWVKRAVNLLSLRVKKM
# T8: CCL9 (UniProt P51670 22-122)
# T8 sequence: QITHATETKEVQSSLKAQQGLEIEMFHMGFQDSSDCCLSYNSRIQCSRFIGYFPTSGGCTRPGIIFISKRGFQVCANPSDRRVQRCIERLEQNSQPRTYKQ
# T9: murine CCL3 (mouse, UniProt P10855 24-92)
# T9 construct: also called mCCL3
# T9 sequence: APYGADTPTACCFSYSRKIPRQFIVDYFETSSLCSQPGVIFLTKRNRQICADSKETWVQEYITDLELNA
# T10: human CCL3 (human, UniProt P10147 23-92)
# T10 construct: also called hCCL3
# T10 sequence: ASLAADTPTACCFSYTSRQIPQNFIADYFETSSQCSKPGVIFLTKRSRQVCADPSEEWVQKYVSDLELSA
# T11: murine CCL11 (mouse, UniProt P48298 24-97)
# T11 sequence: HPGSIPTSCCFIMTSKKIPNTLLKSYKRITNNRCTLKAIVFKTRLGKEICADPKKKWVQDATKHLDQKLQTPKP
# B1: R17 chemokine decoy receptor of Rodent herpesvirus Peru (RHVP), wild type, C-terminal 8-His fusion (receptor)
# chain: GPVGEPVASEINEASKVSSRLLTQDILFRKDRQATISLPIKLPVEDIITQTCDKITYGPLKFLDLLEKETAVLPLSTDITCPACLGRAVLVGKWECPAHVAVNESDLTVFGPNKEEHVPQFVTVQQPSDGKMQRLFFAKFLGTEESLAVLRVPGPDGHLCIQEALIHFKELSGAGVCSLWKANDSREEGLEMKQVDCLETTVLENQTCIATTLSKKIYHRLYCGERLMTGGQVSTRVLLTALGFYKRQPYTFHRVPKGMVYVHLIDSGSEDYMEYSECEEVTPGRYEDKQISYTFYTDLFQTADGEPVLASVWGTSGLKDSAYESCAFVIPTKGRRKLVPRRIMSKCYPFRLTYHPSTMTVRLDVRVEKHHGATDQGFVFLKMESGTYSEGREYYLDRVLWGEDSSTNNVLQ
# notes: not shown: C-terminal 8-His tag
# Tests used:
# [1] = molecular target: CCL3 (species not given); test: SPR, R17 variant on CM5 chip; column KDeq (nM); ka, kd, KD printed n/a
# [2] = molecular target: T1, murine XCL1 (lymphotactin); test: SPR, R17 on CM5 chip; KD,eq from saturation binding, Scatchard analysis
# murine CCL24 = molecular target: T2, murine CCL24; test: as above
# murine CCL8 = molecular target: T3, murine CCL8; test: as above
# murine CCL12 = molecular target: T4, murine CCL12; test: as above
# murine CCL4 [3] = molecular target: T5, murine CCL4; test: as above
# human CCL5 = molecular target: T6, human CCL5; test: as above
# murine CCL20 = molecular target: T7, murine CCL20; test: as above
# CCL9 = molecular target: T8, CCL9; test: as above
# murine CCL5 [4] = molecular target: T12, murine CCL5 (mouse, UniProt P30882 24-91); test: as above
# T12 construct: also called mCCL5
# murine CCL2 = molecular target: T13, murine CCL2 (mouse, UniProt P10148 24-148); test: as above
# T13 construct: also called mCCL2
# murine CCL3 [5] = molecular target: T9, murine CCL3; test: as above
# [6] = molecular target: CCL2 (species not given); test: SPR, R17 variant on CM5 chip; column kd x 10^-3 s-1
# [7] = molecular target: T1, murine XCL1 (lymphotactin); test: SPR, R17 amine-coupled to CM5 chip
# murine CCL4 [8] = molecular target: T5, murine CCL4; test: SPR, R17 amine-coupled to CM5 chip
# human CCL3 = molecular target: T10, human CCL3; test: SPR, R17 amine-coupled to CM5 chip
# murine CCL11 = molecular target: T11, murine CCL11; test: SPR, R17 amine-coupled to CM5 chip
# murine CCL5 [9] = molecular target: T12, murine CCL5; test: SPR, R17 amine-coupled to CM5 chip
# murine CCL3 [10] = molecular target: T9, murine CCL3; test: SPR, R17 amine-coupled to CM5 chip
# [11] = molecular target: CCL2 (species not given); test: SPR, R17 variant on CM5 chip; column KDeq (nM)
# murine CCL3 [12] = molecular target: T9, murine CCL3
# [13] = molecular target: CCL2 (species not given); test: SPR, R17 variant on CM5 chip; column KD (nM), kinetic
# [14] = molecular target: CCL2 (species not given); test: SPR, R17 variant on CM5 chip; column ka x 10^6 M-1s-1
# T12 sequence (P30882 24-91 limits assumed): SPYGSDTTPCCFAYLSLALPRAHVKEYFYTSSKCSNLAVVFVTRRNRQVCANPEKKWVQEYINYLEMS
# T13 sequence (P10148 24-148 limits assumed): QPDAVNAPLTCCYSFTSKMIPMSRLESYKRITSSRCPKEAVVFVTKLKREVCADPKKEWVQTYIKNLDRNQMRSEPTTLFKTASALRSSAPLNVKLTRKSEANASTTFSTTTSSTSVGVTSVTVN
binder,measurement,setting,value
B1,Kd,[1],0.4 nM
same,Kd,[2],4.2 nM
same,Kd,murine CCL24,2.2 nM
same,Kd,murine CCL8,80 nM
same,Kd,murine CCL12,1.3 nM
same,Kd,murine CCL4 [3],0.8 nM
same,Kd,human CCL5,0.9 nM
same,Kd,murine CCL20,3.4 nM
same,Kd,CCL9,1.3 nM
same,Kd,murine CCL5 [4],0.1 nM
same,Kd,murine CCL2,10 nM
same,Kd,murine CCL3 [5],0.4 nM
same,koff,[6],0.02 s⁻¹
same,dissociation time of the complex,[7],> 10 min
same,dissociation time of the complex,murine CCL4 [8],> 10 min
same,dissociation time of the complex,human CCL3,> 10 min
same,binding result,murine CCL11,binds
same,dissociation time of the complex,murine CCL5 [9],> 10 min
same,dissociation time of the complex,murine CCL3 [10],> 10 min
same,Kd,[11],10 nM
same,Kd,murine CCL3 [12],1.4 nM
same,Kd,[13],6.7 nM
same,kon,[14],2e+06 M⁻¹ s⁻¹
